# Test results published in paper PMC4579036.
# Read-outs that look alike come from different tables or passages of the source.
# B1: F1 (dsDNA)
# DNA 1: AAATTTGTTTGAATTTTGAGCAAATTT
# DNA 2: AAATTTGCTCAAAATTCAAACAAATTT
# B2: F28 (dsDNA)
# DNA 1: AAATTTGTTTGAGCGTTGAGCAAATTT
# DNA 2: AAATTTGCTCAACGCTCAAACAAATTT
# B3: F29 (dsDNA)
# DNA 1: AAATTTGTTTGGGCGCTGAGCAAATTT
# DNA 2: AAATTTGCTCAGCGCCCAAACAAATTT
# Columns and labels:
# Assay in all cases: competition
# Fis [1] = target: T1, Fis (Escherichia coli, UniProt P0A6R3 1-98)
# Fis [2] = target: T1, Fis; remark: listed apart in the source
# Fis [3] = target: T1, Fis; remark: listed apart in the source
# T1 sequence (P0A6R3 whole entry): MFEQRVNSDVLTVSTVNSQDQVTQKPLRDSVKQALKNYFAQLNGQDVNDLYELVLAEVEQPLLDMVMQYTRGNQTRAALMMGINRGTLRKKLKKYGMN
binder,measurement,setting,value
B1,binding result,Fis [1],binds
B2,binding result,Fis [2],binds
B3,binding result,Fis [3],binds
